From US20220298225A1 (published 2022)
Where two headings read alike, the source gives them in different places.

Tests used:
Test in all cases: ELISA
[1] = target: Collagen III
[2] = target: Collagen I
[3] = target: Collagen III; remark: listed apart in the source
[4] = target: Collagen I; remark: listed apart in the source

- Kd [1]: 40.6 nM
- Kd [2]: 1.8 nM
- Kd [3]: 40.6 nM
- Kd [4]: 1.8 nM
B1: CBD-SA (other)
chain: CSQPLDVILLLDGSSSFPASYFDEMKSFAKAFISKANIGPRLTQVSVLQYGSITTIDVPWNVVPEKAHLLSLVDVMQREGGPSQIGDALGFAVRYLTSEMHGARPGASKAVVILVTDVSVDSVDAAADAARSNRVTVFPIGIGDRYDAAQLRILAGPAGDSNVVKLQRIEDLPTMVTLGNSFLHKLCSGFVRIGGGSGGGSEAHKSEIAHRYNDLGEQHFKGLVLIAFSQYLQKCSYDEHAKLVQEVTDFAKTCVADESAANCDKSLHTLFGDKLCAIPNLRENYGELADCCTKQEPERNECFLQHKDDNPSLPPFERPEAEAMCTSFKENPTTFMGHYLHEVARRHPYFYAPELLYYAEQYNEILTQCCAEADKESCLTPKLDGVKEKALVSSVRQRMKCSSMQKFGERAFKAWAVARLSQTFPNADFAEITKLATDLTKVNKECCHGDLLECADDRAELAKYMCENQATISSKLQTCCDKPLLKKAHCLSEVEHDTMPADLPAIAADFVEDQEVCKNYAEAKDVFLGTFLYEYSRRHPDYSVSLLLRLAKKYEATLEKCCAEANPPACYGTVLAEFQPLVEEPKNLVKTNCDLYEKLGEYGFQNAILVRYTQKAPQVSTPTLVEAARNLGRVGTKCCTLPEDQRLPCVEDYLSAILNRVCLLHEKTPVSEHVTKCCSGSLVERRPCFSALTVDETYVPKEFKAETFTFHSDICTLPEKEKQIKKQTALAELVKHKPKATAEQLKTVMDDFAQFLDTCCKAADKDTCFSTEGPNLVTRCKDALAHHHHHH
